The values that follow come from patent US20220396631A1 (Novartis, published 2022).

T1: human BCMA (human, UniProt Q02223 1-54, limits assumed)
T1 construct: also called B-cell maturation antigen; TNFRSF17
T1 sequence (looked up): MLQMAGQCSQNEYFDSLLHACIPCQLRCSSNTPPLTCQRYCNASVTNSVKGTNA

B1: H2/L2-36 (antibody, V domains shown)
VH: QAQLQSSGGGVVQPGRSLRLSCAASGFTFSSYGMHWVRQAPGKGLEWVAVISYKGSNKYYADSVKGRFTISRDNSKNTLYLQMNSLRAEDTAVYYCGGSGYALHDDYYGLDVWGQGTLVTVSS
VL: QSALTQPASVSGSPGQSITISCTGTSSDVGGYNYVSWYQQHPGKAPKLMIYEVSNRLRGVSNRFSGSKFGNTASLTISGLQAEDEADYYCSSYTSSSTLYVFGSGTKVTVL
notes: AB3 family
B2: H2/L2-47 (antibody, V domains shown)
VH: QVQLQSSEGGVVQPGRSLRLSCAASGFTFSSYGMHWVRQAPGKGLEWVAVISYKGSNKYYADSVKGRFTISRDNSKNTLYLQMNSLRAEDTAVYYCGGSGYALHDDYYGLDVWGQGTLVTVSS
VL: QSALTQPASVSGSPGQSITISCTGTSSDVGGYNYVSWYQQHPGKAPKLMIYDVSNRPWGVSNRFSGSKFGNTASLTISGLQAEDEADYYCSSYTSSSTLYVFGSGTKVTVL
notes: AB3 family
B3: H3-2 (antibody, V domains shown)
VH: QAQLQESEGGVVQPGGSLRLSCAASGFTFSSYGMHWVRQAPGKGLEWVAVISYNDLNKYYADSVKGRFTISRDNSKNTLYLQMNSLRAEDTAVYYCGGSGYALHDFQDPTDVWGQGTLVTVSS
VL: QSALTQPASVSGSPGQSITISCTGTSSDVGGYNYVSWYQQHPGKAPKLMIYEVSNRLRGVSNRFSGSKFGNTASLTISGLQAEDEADYYCSSYTSSSTLYVFGSGTKVTVL
notes: AB3 family
B4: H2/L2-88 (antibody, V domains shown)
VH: QVQLQSSEGGVVQPGRSLRLSCAASGFTFSSYGMHWVRQAPGKGLEWVAVISYKGSNKYYADSVKGRFTISRDNSKNTLYLQMNSLRAEDTAVYYCGGSGYALHDDYYGLDVWGQGTLVTVSS
VL: QSALTQPASVSGSPGQSITISCTGTSSDVGGYNYVSWYQQHPGKAPKLMIYEVSNRLRGVSNRFSGSKFGNTASLTISGLQAEDEADYYCSSYTSSSALYVFGSGTKVTVL
notes: AB3 family
B5: H3-6 (antibody, V domains shown)
VH: QAQLQRSGGGVVQPGRSLRLSCAASGFTFSSYGMHWVRQAPGKGLEWVAVISYDDAHKYYADSVKGRFTISRDNSKNTLYLQMNSLRAEDTAVYYCGGSGYALHDQYKPVDVWGQGTLVTVSS
VL: QSALTQPASVSGSPGQSITISCTGTSSDVGGYNYVSWYQQHPGKAPKLMIYEVSNRLRGVSNRFSGSKFGNTASLTISGLQAEDEADYYCSSYTSSSALYVFGSGTKVTVL
notes: AB3 family
B6: H3-5 (antibody, V domains shown)
VH: QVQLQGSGGGVVQPGRSLRLSCAASGFTFSSYGMHWVRQAPGKGLEWVAVISYTGANKYYADSVKGRFTISRDNSKNTLYLQMNSLRAEDTAVYYCGGSGYNLHDDYYGLDVWGQGTLVTVSS
VL: QSALTQPASVSGSPGQSITISCTGTSSDVGGYNYVSWYQQHPGKAPKLMIYEVSNRLSGVSNRFSGSKFGNTASLTISGLQAEDEADYYCSSYTSSSTLYVFGSGTKVTVL
notes: AB3 family
B7: AB3 (antibody, V domains shown)
VH: QVQLVESGGGVVQPGRSLRLSCAASGFTVSSYGMHWVRQAPGKGLEWVAVISYTGSNKYYADSVKGRFTISRDNSKNTLYLQMNSLRAEDTAVYYCGGSGYALHDDYYGLDVWGQGTLVTVSS
VL: QSALTQPASVSGSPGQSITISCTGTSSDVGGYNYVSWYQQHPGKAPKLMIYDVSNRLRGVSNRFSGSKSGNTASLTISGLQAEDEADYYCSSYTSSSALYVFGSGTKVTVL
notes: AB3 family
B8: H2/L2-68 (antibody, V domains shown)
VH: QAQLQSSEGGVVQPGRSLRLSCAASGFTFSSYGMHWVRQAPGKGLEWVAVISYRGFNKYYADSVKGRFTISRDNSKNTLYLQMNSLRAEDTAVYYCGGSGYALHDDYYGQDVWGQGTLVTVSS
VL: QSALTQPASVSGSPGQSITISCTGTSSDVGGYNYVSWYQQHPGKAPKLMIYDVSNRLSGVSNRFSGSKFGNTASLTISGLQAEDEADYYCSSYTSSSTLYVFGSGTKVTVL
notes: AB3 family
B9: H2/L2-18 (antibody, V domains shown)
VH: QAQLQGSGGGVVQPGRSLRLSCAASGFTFSSYGMHWVRQAPGKGLEWVAVISYKGSHKYYADSVKGRFTISRDNSKNTLYLQMNSLRAEDTAVYYCGGSGYALHDDYYGLDVWGQGTLVTVSS
VL: QSALTQPASVSGSPGQSITISCTGTSSDVGGYNYVSWYQQHPGKAPKLMIYDVSNRPWGVSNRFSGSKFGNTASLTISGLQAEDEADYYCSSYTSSSTLYVFGSGTKVTVL
notes: AB3 family
B10: H2/L2-20 (antibody, V domains shown)
VH: QAQLQSSGGGVVQPGRSLRLSCAASGFTVSSYGMHWVRQAPGKGLEWVAVISYTGSNKYYADSVKGRFTISRDNSKNTLYLQMNSLRAEDTAVYYCGGSGYALHDDYYGLDVWGQGTLVTVSS
VL: QSALTQPASVSGSPGQSITISCTGTSSDVGGYNYVSWYQQHPGKAPKLMIYDVSNRLRGVSNRFSGSKFGNTASLTISGLQAEDEADYYCSSYTSSSALYVFGSGTKVTVL
notes: AB3 family
B11: H2/L2-80 (antibody, V domains shown)
VH: QVQLQSSGGGVVQPGRSLRLSCAASGFTFSSYGMHWVRQAPGKGLEWVAVISYTGSNKYYADSVKGRFTISRDNSKNTLYLQMNSLRAEDTAVYYCGGSGYALHDDYYGLDVWGQGTLVTVSS
VL: QSALTQPASVSGSPGQSITISCTGTSSDVGGYNYVSWYQQHPGKAPKLMIYDVSNRAWGVSNRFSGSKFGNTASLTISGLQAEDEADYYCSSYTSSSALYVFGSGTKVTVL
notes: AB3 family
B12: H3-3 (antibody, V domains shown)
VH: QVQLQSSGGGVVQPGRSLRLSCAASGFTVSSYGMHWVRQAPGKGLEWVAVISYSGSNKYYADSVKGRFTISRDNSKNTLYLQMNSLRAEDTAVYYCGGSGYALHDQYKPVDVWGQGTLVTVSS
VL: QSALTQPASVSGSPGQSITISCTGTSSDVGGYNYVSWYQQHPGKAPKLMIYEVSNRLRGVSNRFSGSKFGNTASLTISGLQAEDEADYYCSSYTSSSTLYVFGSGTKVTVL
notes: AB3 family
B13: H3-1 (antibody, V domains shown)
VH: QVQLQGSGGGVVQPGRSLRLSCAASGFTFSSYGMHWVRQAPGKGLEWVAVISYDDAHKYYADSVKGRFTISRDNSKNTLYLQMNSLRAEDTAVYYCGGSGYALHDQYKPVDVWGQGTLVTVSS
VL: QSALTQPASVSGSPGQSITISCTGTSSDVGGYNYVSWYQQHPGKAPKLMIYEVSNRLRGVSNRFSGSKFGNTASLTISGLQAEDEADYYCSSYTSSSTLYVFGSGTKVTVL
notes: AB3 family
B14: H2/L2-83 (antibody, V domains shown)
VH: QAQLQGSGGGVVQPGRSLRLSCAASGFTFSSYGMHWVRQAPGKGLEWVAVISYKGSNKYYADSVKGRFTISRDNSKNTLYLQMNSLRAEDTAVYYCGGSGYALHDDYYGLDVWGQGTLVTVSS
VL: QSALTQPASVSGSPGQSITISCTGTSSDVGGYNYVSWYQQHPGKAPKLMIYEVSNRLRGVSNRFSGSKFGNTASLTISGLQAEDEADYYCSSYTSSSTLYVFGSGTKVTVL
notes: AB3 family
B15: H3-4 (antibody, V domains shown)
VH: QVQLQGSGGGVVQPGRSLRLSCAASGFTFSSYGMHWVRQAPGKGLEWVAVISYDDAHKYYADSVKGRFTISRDNSKNTLYLQMNSLRAEDTAVYYCGGSGYALHDQYKPVDVWGQGTLVTVSS
VL: QSALTQPASVSGSPGQSITISCTGTSSDVGGYNYVSWYQQHPGKAPKLMIYEVSNRLRGVSNRFSGSKFGNTASLTISGLQAEDEADYYCSSYTSSSALYVFGSGTKVTVL
notes: AB3 family

The assay concerns the target T1, human BCMA. Nature of the assay: affinity maturation of PI-61.
Turning to B1, the binding result is “binds”.
Next, B2: “binds”; B3: “binds”; B4: “binds”.
B5: the binding result is on record as “binds”.
Under B6 stands “binds”.
Under B7 stands “binds”.
In the case of B8, the binding result was “binds”.
Under B9 stands “binds”.
Regarding B10, the binding result is “binds”.
Next, B11: “binds”; B12: “binds”.
Consider B13, for which the binding result was “binds”.
Under B14 stands “binds”.
Under B15 stands “binds”.
